From US20060104978A1, “Methods and compositions for PDGF-C activation and inhibition” (LUDWIG INSTITUTE FOR CANCER RESEARCH, priority 2003, published 2006)

Target: T1, PDGFR-α (Homo sapiens, UniProt P16234)
T1 construct: expressed in transfected cells
Experiment: PDGFR-α tyrosine phosphorylation in PAE cells stably expressing PDGFR-α
Type: cell-based
Conditions: conditioned medium from transfected COS-1 cells applied to PAE cells, 120 min on ice
Protocol: It was verified that the growth factor domain in PDGF-CC released by tPA-mediated proteolysis is an efficient PDGFR-A ligand. Conditioned media from transfected COS-1 cells were applied onto porcine aortic endothelial (PAE) cells with stable expression of PDGFR-α (FIG. 5A).
To understand the structural requirements for receptor-binding and activation of PDGF-CC, the series of truncated mutants of PDGF-CC generated above were analysed for their ability to activate PDGFR-α in PAE cells. Conditioned media containing the truncated mutants of PDGF-CC were applied onto PAE cells, and the activation of the receptors was monitored by induction of receptor tyrosine phosphorylation (FIG. 6D).
To monitor growth factor-induced tyrosine phosphorylation of PDGFR-α, serum-starved PAE cells stably expressing human PDGFR-α were incubated for 120 min on ice with conditioned medium from COS-1 cells transfected with full-length PDGF-C in the absence or presence of tPA. Alternatively, primary wild-type and tPA-deficient fibroblasts were stimulated with 100 ng/ml activated PDGF-CC protein. The cells were lysed as described previously (Li et al, 2000) and PDGFR-α was immunoprecipitated using a specific antiserum (Eriksson et al, 1992). […] Tyrosinephosphorylated receptors were detected by immunoblotting using an antiphosphotyrosine antibody (PY99, Santa Cruz). […]

T1 sequence (P16234 24-1089): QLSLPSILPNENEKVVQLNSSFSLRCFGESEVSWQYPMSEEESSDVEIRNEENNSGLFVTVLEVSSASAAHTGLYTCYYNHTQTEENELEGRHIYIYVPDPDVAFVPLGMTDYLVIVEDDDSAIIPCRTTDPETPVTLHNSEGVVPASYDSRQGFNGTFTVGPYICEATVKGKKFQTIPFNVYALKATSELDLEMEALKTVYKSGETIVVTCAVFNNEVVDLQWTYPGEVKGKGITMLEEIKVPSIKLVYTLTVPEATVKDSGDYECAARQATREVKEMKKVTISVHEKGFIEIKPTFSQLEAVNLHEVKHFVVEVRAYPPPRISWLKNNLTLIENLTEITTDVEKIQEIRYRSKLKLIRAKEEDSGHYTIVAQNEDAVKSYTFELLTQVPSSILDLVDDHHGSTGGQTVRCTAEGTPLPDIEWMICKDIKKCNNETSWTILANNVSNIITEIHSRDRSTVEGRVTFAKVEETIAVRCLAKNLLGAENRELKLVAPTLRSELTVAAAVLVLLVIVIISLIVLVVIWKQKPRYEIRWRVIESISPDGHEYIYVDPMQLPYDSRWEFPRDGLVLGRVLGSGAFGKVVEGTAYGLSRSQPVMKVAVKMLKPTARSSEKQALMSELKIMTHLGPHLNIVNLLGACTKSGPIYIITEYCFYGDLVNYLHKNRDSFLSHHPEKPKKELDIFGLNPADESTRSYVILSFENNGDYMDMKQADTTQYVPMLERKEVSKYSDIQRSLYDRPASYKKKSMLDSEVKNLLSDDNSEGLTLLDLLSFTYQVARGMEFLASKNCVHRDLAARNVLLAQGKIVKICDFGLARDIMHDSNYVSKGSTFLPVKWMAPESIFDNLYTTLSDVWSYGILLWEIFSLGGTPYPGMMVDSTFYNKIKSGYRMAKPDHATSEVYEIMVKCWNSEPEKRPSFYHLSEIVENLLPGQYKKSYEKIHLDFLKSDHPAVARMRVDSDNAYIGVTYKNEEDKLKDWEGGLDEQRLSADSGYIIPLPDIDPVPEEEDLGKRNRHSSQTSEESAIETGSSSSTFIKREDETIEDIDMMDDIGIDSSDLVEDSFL

Substance: tPA: tissue plasminogen activator, secreted serine protease; expressed, purified from human melanoma cells or recombinant
- PDGFR-α activation (receptor tyrosine phosphorylation): failed to induce receptor activation
